In IntAct's records for PubMed 23183827:

Target: syua_human SNCA (UniProt P37840)

## Leucine-rich repeat serine/threonine-protein kinase 2 (Homo sapiens), Q5S007 G2019S
  effect of a mutation on the interaction: increasing interaction
